B1: Zyxin (Homo sapiens), Q15942 (parent)
chain: MAAPRPSPAISVSVSAPAFYAPQKKFGPVVAPKPKVNPFRPGDSEPPPAPGAQRAQMGRVGEIPPPPPEDFPLPPPPLAGDGDDAEGALGGAFPPPPPPIEESFPPAPLEEEIFPSPPPPPEEEGGPEAPIPPPPQPREKVSSIDLEIDSLSSLLDDMTKNDPFKARVSSGYVPPPVATPFSSKSSTKPAAGGTAPLPPWKSPSSSQPLPQVPAPAQSQTQFHVQPQPQPKPQVQLHVQSQTQPVSLANTQPRGPPASSPAPAPKFSPVTPKFTPVASKFSPGAPGGSGSQPNQKLGHPEALSAGTGSPQPPSFTYAQQREKPRVQEKQHPVPPPAQNQNQVRSPGAPGPLTLKEVEELEQLTQQLMQDMEHPQRQNVAVNELCGRCHQPLARAQPAVRALGQLFHIACFTCHQCAQQLQGQQFYSLEGAPYCEGCYTDTLEKCNTCGEPITDRMLRATGKAYHPHCFTCVVCARPLEGTSFIVDQANRPHCVPDYHKQYAPRCSVCSEPIMPEPGRDETVRVVALDKNFHMKCYKCEDCGKPLSIEADDNGCFPLDGHVLCRKCHTARAQT

Variants of: B1
Details: with actn1_human ACTN1, P12814
Sequence of actn1_human ACTN1, P12814 (P12814 whole entry): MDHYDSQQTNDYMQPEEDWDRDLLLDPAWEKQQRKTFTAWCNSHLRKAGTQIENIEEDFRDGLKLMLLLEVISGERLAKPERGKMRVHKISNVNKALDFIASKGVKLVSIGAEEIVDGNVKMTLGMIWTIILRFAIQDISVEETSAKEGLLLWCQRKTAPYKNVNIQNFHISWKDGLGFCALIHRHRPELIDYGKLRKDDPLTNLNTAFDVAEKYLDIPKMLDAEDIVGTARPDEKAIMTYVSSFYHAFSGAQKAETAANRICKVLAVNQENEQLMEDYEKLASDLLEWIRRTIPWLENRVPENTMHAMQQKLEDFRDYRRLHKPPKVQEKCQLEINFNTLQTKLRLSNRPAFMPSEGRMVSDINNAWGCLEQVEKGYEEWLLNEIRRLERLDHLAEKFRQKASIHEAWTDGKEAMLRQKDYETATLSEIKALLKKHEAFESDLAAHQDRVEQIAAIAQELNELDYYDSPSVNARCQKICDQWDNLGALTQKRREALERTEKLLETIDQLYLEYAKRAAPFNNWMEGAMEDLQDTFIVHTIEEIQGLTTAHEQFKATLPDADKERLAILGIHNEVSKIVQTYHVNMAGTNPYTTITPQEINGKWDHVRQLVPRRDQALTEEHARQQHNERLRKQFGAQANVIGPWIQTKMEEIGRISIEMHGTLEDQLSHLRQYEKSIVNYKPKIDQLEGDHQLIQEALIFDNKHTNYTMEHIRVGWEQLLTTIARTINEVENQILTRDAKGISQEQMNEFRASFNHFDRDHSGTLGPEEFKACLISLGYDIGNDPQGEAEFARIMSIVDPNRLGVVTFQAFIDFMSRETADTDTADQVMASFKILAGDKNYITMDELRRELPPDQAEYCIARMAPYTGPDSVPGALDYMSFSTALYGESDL

| Variant | effect of a mutation on the interaction |
| --- | --- |
| MAAPRPSPAISVSVSAPAFYAPQKKSGPVVAPKPKVNPFRPGDSEPPPAPGAQRAQMGRVGEIPPPPPEDFPLPPPPLAGDGDDAEGALGGAFPPPPPPIEESFPPAPLEEEIFPSPPPPPEEEGGPEAPIPPPPQPREKVSSIDLEIDSLSSLLDDMTKNDPFKARVSSGYVPPPVATPFSSKSSTKPAAGGTAPLPPWKSPSSSQPLPQVPAPAQSQTQFHVQPQPQPKPQVQLHVQSQTQPVSLANTQPRGPPASSPAPAPKFSPVTPKFTPVASKFSPGAPGGSGSQPNQKLGHPEALSAGTGSPQPPSFTYAQQREKPRVQEKQHPVPPPAQNQNQVRSPGAPGPLTLKEVEELEQLTQQLMQDMEHPQRQNVAVNELCGRCHQPLARAQPAVRALGQLFHIACFTCHQCAQQLQGQQFYSLEGAPYCEGCYTDTLEKCNTCGEPITDRMLRATGKAYHPHCFTCVVCARPLEGTSFIVDQANRPHCVPDYHKQYAPRCSVCSEPIMPEPGRDETVRVVALDKNFHMKCYKCEDCGKPLSIEADDNGCFPLDGHVLCRKCHTARAQT [F26S] | decreasing interaction |
| MAAPRPSPAISVSVSAPAFYAPQKKFGPVVAPKPKVNPSRPGDSEPPPAPGAQRAQMGRVGEIPPPPPEDFPLPPPPLAGDGDDAEGALGGAFPPPPPPIEESFPPAPLEEEIFPSPPPPPEEEGGPEAPIPPPPQPREKVSSIDLEIDSLSSLLDDMTKNDPFKARVSSGYVPPPVATPFSSKSSTKPAAGGTAPLPPWKSPSSSQPLPQVPAPAQSQTQFHVQPQPQPKPQVQLHVQSQTQPVSLANTQPRGPPASSPAPAPKFSPVTPKFTPVASKFSPGAPGGSGSQPNQKLGHPEALSAGTGSPQPPSFTYAQQREKPRVQEKQHPVPPPAQNQNQVRSPGAPGPLTLKEVEELEQLTQQLMQDMEHPQRQNVAVNELCGRCHQPLARAQPAVRALGQLFHIACFTCHQCAQQLQGQQFYSLEGAPYCEGCYTDTLEKCNTCGEPITDRMLRATGKAYHPHCFTCVVCARPLEGTSFIVDQANRPHCVPDYHKQYAPRCSVCSEPIMPEPGRDETVRVVALDKNFHMKCYKCEDCGKPLSIEADDNGCFPLDGHVLCRKCHTARAQT [F39S] | increasing interaction |
| MAAPRPSPAISVSVSAPAFYAPQKKFGPVVSPKPKVNPFRPGDSEPPPAPGAQRAQMGRVGEIPPPPPEDFPLPPPPLAGDGDDAEGALGGAFPPPPPPIEESFPPAPLEEEIFPSPPPPPEEEGGPEAPIPPPPQPREKVSSIDLEIDSLSSLLDDMTKNDPFKARVSSGYVPPPVATPFSSKSSTKPAAGGTAPLPPWKSPSSSQPLPQVPAPAQSQTQFHVQPQPQPKPQVQLHVQSQTQPVSLANTQPRGPPASSPAPAPKFSPVTPKFTPVASKFSPGAPGGSGSQPNQKLGHPEALSAGTGSPQPPSFTYAQQREKPRVQEKQHPVPPPAQNQNQVRSPGAPGPLTLKEVEELEQLTQQLMQDMEHPQRQNVAVNELCGRCHQPLARAQPAVRALGQLFHIACFTCHQCAQQLQGQQFYSLEGAPYCEGCYTDTLEKCNTCGEPITDRMLRATGKAYHPHCFTCVVCARPLEGTSFIVDQANRPHCVPDYHKQYAPRCSVCSEPIMPEPGRDETVRVVALDKNFHMKCYKCEDCGKPLSIEADDNGCFPLDGHVLCRKCHTARAQT [A31S] | decreasing interaction |
| MAAPRPSPAISVSVSAPAFYAPQKKFGPSVAPKPKVNPFRPGDSEPPPAPGAQRAQMGRVGEIPPPPPEDFPLPPPPLAGDGDDAEGALGGAFPPPPPPIEESFPPAPLEEEIFPSPPPPPEEEGGPEAPIPPPPQPREKVSSIDLEIDSLSSLLDDMTKNDPFKARVSSGYVPPPVATPFSSKSSTKPAAGGTAPLPPWKSPSSSQPLPQVPAPAQSQTQFHVQPQPQPKPQVQLHVQSQTQPVSLANTQPRGPPASSPAPAPKFSPVTPKFTPVASKFSPGAPGGSGSQPNQKLGHPEALSAGTGSPQPPSFTYAQQREKPRVQEKQHPVPPPAQNQNQVRSPGAPGPLTLKEVEELEQLTQQLMQDMEHPQRQNVAVNELCGRCHQPLARAQPAVRALGQLFHIACFTCHQCAQQLQGQQFYSLEGAPYCEGCYTDTLEKCNTCGEPITDRMLRATGKAYHPHCFTCVVCARPLEGTSFIVDQANRPHCVPDYHKQYAPRCSVCSEPIMPEPGRDETVRVVALDKNFHMKCYKCEDCGKPLSIEADDNGCFPLDGHVLCRKCHTARAQT [V29S] | decreasing interaction |

— IntAct's records for PubMed 11423549
